Entries after “also recorded” stand apart in the source; their conditions may differ.
B1: Bcl-w (C29S/A128E) BH3 Trap.n9V5: Bcl-2-like trap mRNA, SEQ ID NO: 81, V5 tag (nucleic acid)
chain: ATGATTCCCAATCCGCTCCTCGGGCTTGACGCTACACCAGCCAGTGCACCAGACACGAGGGCGCTGGTTGCCGATTTCGTGGGATACAAGCTCAGGCAAAAAGGGTACGTAAGCGGTGCCGGGCCCGGGGAGGGACCGGCTGCCGATCCACTCCACCAGGCTATGAGGGCAGCTGGGGACGAATTCGAAACACGCTTTCGGCGGACTTTCTCCGACCTTGCCGCACAGCTACACGTCACTCCCGGGAGCGCTCAGCAGCGCTTCACGCAGGTCTCAGACGAATTGTTCCAAGGCGGCCCTAATTGGGGAAGATTGGTGGCCTTCTTCGTGTTTGGGGCAGCACTGTGCGCTGAGTCCGTGAACAAAGAAATGGAACCCCTCGTTGGCCAAGTCCAAGAATGGATGGTGGAATATCTGGAAACACAGTTAGCGGATTGGATTCACTCATCTGGGGGCTGGGCTGAGTTTACAGCACTGTACGGGGACGGTGCCCTAGAGGAGGCCCGAAGACTGAGGGAAGGCAACTGGGCCAGCGTTCGCACGGTGTTGACCGGCGCGGTTGCTTTGGGCGCTTTGGTTACCGTCGGCGCATTCTTCGCCAGTAAA
modifications: V5 tag; Synthetic Bcl-w (C29S/A128E)BH3 mRNA sequence with V5 epitope tag
B2: Bcl-xL del.C24 BH3 Trap.cFLAG: Bcl-2-like trap mRNA, SEQ ID NO: 83, FLAG tag (nucleic acid)
chain: ATGTCCCAGAGCAACAGGGAACTCGTAGTCGATTTCTTGTCCTACAAGCTCAGTCAGAAGGGCTACTCTTGGTCCCAATTTTCCGACGTGGAAGAAAATCGGACAGAAGCCCCTGAGGGAACCGAGAGTGAGATGGAGACCCCGTCTGCAATCAACGGGAACCCTTCTTGGCACTTGGCCGACAGTCCCGCTGTGAATGGCGCCACAGGTCACAGTTCATCACTCGACGCTAGAGAAGTTATACCCATGGCAGCAGTCAAGCAAGCTCTGCGGGAGGCCGGCGACGAGTTCGAACTTCGGTACCGCCGAGCTTTTTCTGACCTGACTAGTCAGCTGCATATTACTCCGGGCACTGCGTACCAGTCGTTCGAACAGGTGGTTAATGAACTATTTCGAGACGGCGTGAATTGGGGCAGAATTGTAGCCTTTTTCTCCTTTGGAGGTGCACTGTGTGTCGAGAGCGTCGATAAGGAAATGCAGGTGTTGGTGAGCCGTATCGCGGCCTGGATGGCCACGTATCTGAACGACCATTTGGAACCATGGATCCAAGAAAACGGGGGTTGGGATACTTTCGTGGAGTTATATGGCAACAATGCTGCAGCGGAAAGTCGCAAGGGCCAGGAACGAGACTATAAAGATGACGACGATAAA
modifications: FLAG tag; Synthetic Bcl-xL del.C24 mRNA sequence with FLAG epitope tag
B3: SQT-Noxa-BH3: mRNA (SEQ ID NO: 52, FLAG) encoding SQT scaffold with Noxa BH3 domain in N-terminus (nucleic acid)
chain: ATGATCCCAAGACCCGCAGAGCTCGAAGTGGAATGCGCTACCCAACTTAGACGGTTCGGAGACAAGCTGAACTTTCGGCAGAAGCTCCTGGGACTCTCAGAAGCGAAGCCTGCCACCCCCGAAATCCAGGAAATCGTCGACAAGGTCAAGCCGCAGCTTGAGGAAAAGACCAACGAGACTTACGGAAAACTGGAGGCCGTGCAGTATAAGACCCAAGTGTTGGCCTCCACCAACTACTACATTAAGGTCCGCGCCGGCGATAACAAGTACATGCACCTGAAGGTGTTCAATGGTCCTCCGGGACAGAACGCGGACAGGGTGCTGACTGGCTACCAAGTGGACAAGAACAAGGACGACGAGCTGACGGGCTTCGACTACAAGGATGATGATGACAAA
modifications: FLAG tag; Synthetic SQT-NoxA-BH3 mRNA sequence with FLAG epitope tag
B4: SQT-Bad-BH3: mRNA (SEQ ID NO: 51, FLAG) encoding SQT scaffold with Bad BH3 domain in N-terminus (nucleic acid)
chain: ATGATCCCAAGAAACCTGTGGGCTGCACAACGCTACGGAAGAGAACTGCGCCGGATGAGCGACGAATTTGTGGACTCGTTCAAGAAGGGGGGACTCTCAGAAGCGAAGCCTGCCACCCCCGAAATCCAGGAAATCGTCGACAAGGTCAAGCCGCAGCTTGAGGAAAAGACCAACGAGACTTACGGAAAACTGGAGGCCGTGCAGTATAAGACCCAAGTGTTGGCCTCCACCAACTACTACATTAAGGTCCGCGCCGGCGATAACAAGTACATGCACCTGAAGGTGTTCAATGGTCCTCCGGGACAGAACGCGGACAGGGTGCTGACTGGCTACCAAGTGGACAAGAACAAGGACGACGAGCTGACGGGCTTCGACTACAAGGATGATGATGACAAA
modifications: FLAG tag; Synthetic SQT-BAD-BH3 mRNA sequence with FLAG epitope tag

Key:
Hep3B cells [1] = assay: Co-transfection of SQT-Bim-BH3 mRNA with Bcl-2-like Trap mRNAs, % phase confluence; type: cell-based
Excerpt: C32, Bcl-xL del.C24, Mcl-1 del.N/C(2010), and Bcl-xL (D61A) del.C24.

primary hepatocytes [2] = assay: Apoptosis induction by MC3 LNP-formulated mRNAs in primary hepatocytes cultured in vitro; type: cell-based; settings: LNPs
MCL-1 = molecular target: T1, MCL-1 (Homo sapiens, UniProt Q07820); assay: Co-immunoprecipitation in lysates of transfected HeLa cells; type: binding; settings: lysates of HeLa cells transfected with mRNAs
T1 construct: performed in lysates of HeLa cells transfected with mRNAs encoding SQT-BH3 constructs; endogenous in cells; host or cells: HeLa
T1 sequence (Q07820 whole entry): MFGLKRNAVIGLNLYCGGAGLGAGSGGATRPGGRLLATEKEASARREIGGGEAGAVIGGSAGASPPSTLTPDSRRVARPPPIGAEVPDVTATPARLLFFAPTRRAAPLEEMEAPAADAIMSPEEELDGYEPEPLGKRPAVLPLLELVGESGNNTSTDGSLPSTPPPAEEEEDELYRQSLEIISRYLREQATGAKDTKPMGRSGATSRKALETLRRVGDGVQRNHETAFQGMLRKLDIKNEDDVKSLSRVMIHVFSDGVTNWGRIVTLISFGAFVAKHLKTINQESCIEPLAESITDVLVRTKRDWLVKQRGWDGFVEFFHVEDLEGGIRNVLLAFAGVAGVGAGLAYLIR

HeLa cells [3] = assay: PARP-1 cleavage by SDS-PAGE and Western blotting after transfection of mRNAs encoding SQT-BH3 constructs; type: cell-based; settings: 4 hours after transfection
Excerpt: The cleavage of PARP-1 was detected by the appearance of a faster-migrating band and concomitant loss of the full-length band by SDS-PAGE and Western blotting. Western blotting with anti-actin antibodies served as a loading control.

Hep3B cells [4] = assay: Cell death by YOYO-3 with MC3-formulated LNPs; type: cell-based; settings: relatively high concentration
Method: The efficacy of mRNAs encoding SQT-BH3 constructs in inducing cell death was tested both in hepatocellular carcinoma cell lines as well as in primary hepatocytes using lipid nanoparticle (LNP)-formulated constructs. Hep3B cells were treated with varying doses (0.78 ng to 50 ng) of MC3-formulated LNPs in the presence of YOYO-3 (Life Technologies), a DNA dye that is taken up preferentially by dead cells that is used to measure the extent of cell death. MC3 lipid nanoparticles included MC3 50%, DSPC 10%, Cholesterol 38.5%, PEG-DMG 1.5%, N:P ˜5.5.

HeLa cells [5] = assay: Long-term live cell imaging of GFP-positive cells after mRNA transfection; type: cell-based
primary hepatocytes [6] = settings: 10uM sorafenib tosylate, 24 hours after treatment
Method: Controls were an empty SQT construct (“SQT-dummy”), a non-targeting siRNA and PBS. For treatment of Hep3B cells, 20,000 Hep3B cells/well per plated in 96-well plates. At Day 1, some wells were transfected with siMCL1 (Dharmacon, ON-TARGETplus Human MCL1 (4170) siRNA-SMARTpool, # L-004501-00-0005) or non-targeting siRNA (ON-TARGETplus Non-targeting Control Pool, # D-001810-10-05). […] 24 hours after treatment, YOYO®-3 iodide (Life Technologies) viability dye was added to each well and cell death was measured on an IncuCyte ZOOM® using YOYO-3 fluorescence as a readout (=“Apoptosis”). For treatment of primary hepatocytes, 18,000 mouse hepatocytes (Gibco) were seeded in each well of a 96-well plate. At Day 1, some wells were transfected with siMCL1 (Dharmacon, SMARTpool: ON-TARGETplus Mc11 siRNA, # L-062229-00-0005) or non-targeting siRNA (ON-TARGETplus Non-targeting Control Pool, # D-001810-10-05). […] 24 hours after treatment, Caspase 3/7 reagent (EssenBio) apoptosis dye was added to each well and cell death was measured on an IncuCyte ZOOM® using the caspase 3/7 reagent fluorescence as a readout (=“Apoptosis”).

Hep3B cells [7] = assay: Sorafenib combination, YOYO-3 apoptosis on IncuCyte ZOOM; type: cell-based
Method: To determine the effect of SQT-BH3 constructs in combination with the protein tyrosine kinase inhibitor Sorafenib on liver cells, 20,000 Hep3B cells/well in a 96 well plate were treated with increasing amounts of sorafenib tosylate (Selleck Chemicals) and transfected with LNPs containing SQT-PUMA-BH3 (68 pM) or SQT-Bad-BH3 (550pM).

Hep3B cells [8] = assay: SQT-BH3 in combination with siMCL1 or sorafenib, YOYO-3; type: cell-based; settings: 10 uM sorafenib tosylate, 24 hours after treatment
[9] = tested on: primary mouse hepatocytes; assay: Sorafenib combination in primary mouse hepatocytes; type: cell-based; settings: SQT-PUMA-BH3 205 pM or 1100 pM, SQT-Bad-BH3 549 pM or 1100 pM, sorafenib 0-10 uM
Method: Similar combination experiments were performed with primary mouse hepatocytes, treated with SQT-PUMA-BH3 (205 pM or 1100 pM) or SQT-Bad-BH3 (549 pM or 1100 pM) in combination with sorafenib (0-10 μM). […] Thus, normal primary liver cells are spared by the combination treatment, indicating the combination treatment can selectively kill liver cancer cells over normal liver cells.

BCL-2 = molecular target: T2, BCL-2 (Homo sapiens, UniProt P10415); assay: Co-immunoprecipitation after mRNA transfection; type: binding; settings: within two hours after mRNA transfection
T2 construct: endogenous in cells; host or cells: cells transfected with SQT-BH3 mRNA (HeLa by context)
T2 sequence (P10415 whole entry): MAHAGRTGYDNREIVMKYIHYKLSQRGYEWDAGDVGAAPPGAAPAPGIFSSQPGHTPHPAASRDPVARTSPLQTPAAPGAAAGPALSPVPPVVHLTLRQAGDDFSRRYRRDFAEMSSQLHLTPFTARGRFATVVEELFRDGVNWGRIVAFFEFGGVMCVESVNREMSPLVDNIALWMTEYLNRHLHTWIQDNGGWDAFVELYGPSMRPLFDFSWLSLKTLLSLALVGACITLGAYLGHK

BCL-XL = molecular target: T3, BCL-XL (Homo sapiens, UniProt Q07817); assay: Co-immunoprecipitation after mRNA transfection; type: binding; settings: within two hours after mRNA transfection
T3 construct: endogenous in cells; host or cells: cells transfected with SQT-BH3 mRNA (HeLa by context)
T3 sequence (Q07817 whole entry): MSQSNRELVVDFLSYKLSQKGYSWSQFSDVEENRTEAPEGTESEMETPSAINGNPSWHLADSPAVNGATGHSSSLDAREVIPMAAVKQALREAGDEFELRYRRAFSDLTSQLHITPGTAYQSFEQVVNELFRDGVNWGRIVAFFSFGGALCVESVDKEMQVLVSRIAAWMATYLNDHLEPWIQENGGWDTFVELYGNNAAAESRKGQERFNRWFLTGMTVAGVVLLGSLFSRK

Row | Molecule | fate of SQT-BimBH3-transfected cells co-transfected with Trap construct (Hep3B cells [1]) | PARP-1 cleavage (primary hepatocytes [2]) | PARP-1 cleavage, extent (HeLa cells [3]) | apoptosis and cell death (YOYO-3) (Hep3B cells [4]) | cell-killing activity (HeLa cells [5]) | further results
1 | B1 | remained alive |  |  |  |  | inhibition of SQT-BH3-induced cell death (% phase confluence) (Hep3B cells [1]; co-transfected with SQT-Bim-BH3 mRNA, ratio Trap construct:SQT-BH3 construct 1:2, 24 hour period): most potent inhibitor of SQT-BH3-induced cell death; also recorded: to a substantially greater degree than Bcl-xL (D61A) del.C24 BH3 Trap.cFLAG
2 | B2 | exhibited substantial apoptosis and cell death |  |  |  |  | 
3 | B3 |  | did not | also induced PARP-1 cleavage, although to a lesser extent than SQT-PUMA-BH3 or SQT-Bim-BH3 | behaved similar to the empty MC3 LNP control and mRNAs encoding SQT | did not show cell-killing activity | co-immunoprecipitation of MCL-1 (MCL-1): able to co-immunoprecipitate
4 | B4 |  | did not | also induced PARP-1 cleavage, although to a lesser extent than SQT-PUMA-BH3 or SQT-Bim-BH3 | behaved similar to the empty MC3 LNP control and mRNAs encoding SQT | did not show cell-killing activity | apoptosis (caspase 3/7) in combination with siMCL1, sorafenib or controls (primary hepatocytes [6]): did not lead to increased apoptosis as compared to treatment with the control SQT-dummy construct; nature of combination effect with sorafenib (Hep3B cells [7]; SQT-PUMA-BH3 68 pM or SQT-Bad-BH3 550pM): synergistic effect; apoptosis (YOYO-3), combination with sorafenib vs sorafenib alone (Hep3B cells [7]; SQT-PUMA-BH3 68 pM or SQT-Bad-BH3 550pM in LNPs, increasing sorafenib tosylate): increased apoptosis of the liver cells as compared to treatment with sorafenib alone; apoptosis (YOYO-3) in combination with either siMCL1 or sorafenib (Hep3B cells [8]): led to a marked increase in apoptosis as compared to treatment with the SQT-BH3 construct in combination with non-targeting siRNA or PBS; also recorded: synergistic pro-apoptotic effect; apoptosis in combination with sorafenib [9]: neither SQT-BH3 construct, in combination with sorafenib, caused apoptosis; interaction with BCL-2 by co-immunoprecipitation (BCL-2): also able to co-immunoprecipitate BCL-XL and BCL-2, although to a lesser extent than SQT-PUMA-BH3 and SQT-Bim-BH3; interaction with BCL-XL by co-immunoprecipitation (BCL-XL): also able to co-immunoprecipitate BCL-XL and BCL-2, although to a lesser extent than SQT-PUMA-BH3 and SQT-Bim-BH3
